In the supplement of paper PMC12764529:
± gives the half width of the 95% confidence interval.

Tests used:
[1] = folding stability dG unfold from trypsin proteolysis; higher = more stable
In short: (§1)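 Unfolding free energy was derived, per protease or combined, against a sequence-predicted unfolded-state K50 and a shared folded-state K50, starting from K50 inferred by Bayesian fitting of sequencing counts. Digestion with trypsin and chymotrypsin was carried out on designed mini-proteins under 80 residues without cysteine in a PA-tagged cDNA display construct. Only designs with AlphaFold2 dimer inter-PAE above 15 were kept.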

[2] = folding stability dG unfold from chymotrypsin proteolysis; higher = more stable
In short: as §1

[3] = folding stability dG unfold (combined trypsin and chymotrypsin); higher = more stable
In short: as §1

Sequence	folding stability dG unfold [1] [kcal/mol]	folding stability dG unfold [2] [kcal/mol]	folding stability dG unfold [3] [kcal/mol]
SAGEMVVLRIRVKVPVTEVKFDKETGELTVEKKTVTREITLTVPADSPEARELAEKLRELGFEVEVVEASAG [r5_468_TrROS_Hall]	3.35 ± 0.14	3.53 ± 0.042	3.43 ± 0.062
SAGGLVIPVTFMFQDWEEAEEFANEIARELANLYPGRPVKIDVEVEPIRNPNNGKRYYMVEATIEIDPSAGG [r13_545_TrROS]	2.01 ± 0.059	2.77 ± 0.033	2.6 ± 0.15
SAGGSAGGSAPPNVEIKLTMEPYKPPDGNKYYRIPIEVNKKPWQAKEIADWLQPEGFRIEPSAGGSAGGSAG [r3_157_TrROS]	0.238 ± 0.18	0.152 ± 0.41	0.151 ± 0.23
SAGSNTIWYPFPLKEIKEAISSGQSMEEIADELSERHGEEVPIEYPNMKIRIYVPEPGPLYVRIEMTPDSAG [r5_343_TrROS]	0.519 ± 0.2	0.907 ± 0.098	0.734 ± 0.14
SAGGSAGGSAKKKVKVVEIKITYDKEKNEYYIEAKVYNENTGETKTVRIKVKLKPGQKLKFSAGGSAGGSAG [r3_1_TrROS_Hall]	1.65 ± 0.041	1.71 ± 0.066	1.72 ± 0.087
SAGGSFTSEPNPNAPPDQPETITDPSKGVTTEVYFDTEKGTVSTTTTTTGDGTPTTSTSTTAIDPAAASAGG [r13_851_JUSTAS]	1.33 ± 0.15	1.37 ± 0.085	1.34 ± 0.18
SAGGSAGGSAGGWRTVWIRMPPGQSPEQAVDEIKDHFPPGEPIEVEYHPNDGFFRVKIPSAGGSAGGSAGGS [r10_163_TrROS]	0.654 ± 0.08	0.546 ± 0.22	0.668 ± 0.077
SAEPEVEYVVIELEVTIELAPGQEAPTADEIAEALRAALEAAGAEITSVEVEVRDGQVTVRVTIVLPKKASA [r9_1134_TrROS_Hall]	3.53 ± 0.086	3.51 ± 0.17	3.6 ± 0.16
SAGGSAGGSAGSMKTLVTTETSTVPGTTTTVTTTTTTTYDPTSSETTTTTTPVTNPAPAASAGGSAGGSAGG [r17_309_JUSTAS]	-0.827 ± 0.28	1.05 ± 0.02	0.711 ± 0.071
SAGGSAMKLTAETTDPGSDRFEATIYDPSDSGGDSVVSFESEEELEAFIKNLPSSVASVSLVPTSPSAGGSA [r15_589_JUSTAS]	0.983 ± 0.017	0.378 ± 0.035	0.728 ± 0.033
SAGGSMTFEIVEVTYDEETDEVTVRVRLPNGEVVTLSAEEIEKAIKEGKTITFTLENGEKLEIEVLSAGGSA [r2_301_TrROS_Hall]	1.49 ± 0.038	2.58 ± 0.03	2.27 ± 0.084
SAGGSAGGFKIRPIGVDDNYIVFRFRPDDPEALKKLGFKITGVEESGGSVEIIFRMPPEAKDLISAGGSAGG [r6_109_TrROS]	0.781 ± 0.12	0.399 ± 0.16	0.584 ± 0.12
SAGGSPGIKIEIWFMIMFPVKPDPDNGKPRWYMIMVSPKMWYDPEPGGMQIEIDINIMPLGDPEAFSAGGSA [r2_489_TrROS]	3.2 ± 0.16	3.6 ± 0.038	3.41 ± 0.21
SKVEIEVERLPDGTLLVRATAEIPGIPGEKIELAVLVRLPAPERVEVRLLAAPPVETVTETRTYSEEEKKSA [r9_1009_TrROS_Hall]	1.27 ± 0.12	1.52 ± 0.11	1.46 ± 0.17
SAGGSAGGSAGGIEIRGPNGAELKIESDPDWGMVSIEMPGNRQEIQIPIPLPKPDPEDKNSAGGSAGGSAGG [r7_383_TrROS]	0.838 ± 0.038	0.22 ± 0.031	0.568 ± 0.072
SAGGSAGGSAGGMLALIYGKEKPILLSAEEILNNPELLKELEKKGYPIVKIEFFKEEELSAGGSAGGSAGGS [r10_396_TrMRF]	1.07 ± 0.049	0.478 ± 0.15	0.817 ± 0.097
SAGMVIKIKASEELRELLKKLGLSEEEVKKLKIKLKVNGKEVEVEVEVDKETGMIYVRFKDTGKTFKLPSAG [r5_545_TrROS_Hall]	1.61 ± 0.042	1.32 ± 0.15	1.53 ± 0.13
SAGGVEELAKELAERLREELERRLGVEKVEVVDVEVVEVDEETGTVTVRITVRLPDGELLELELELHLDSAG [r5_20_TrROS_Hall]	3.47 ± 0.17	3.08 ± 0.13	3.39 ± 0.15
SAGGSAGGSAGGDGEDGKPKPEPKIKIKIEVESVRNPNGFLIVTYRIPALGIWITIIINSAGGSAGGSAGGS [r10_160_TrROS]	3.03 ± 0.15	4.91 ± 0.24	4.6 ± 0.39
SAGKVVKISAPIEVLRNIPNVLELYVVGDKVYLVVPNELLVVDLDLPPLVPTVPESVPEELALLGGLLGSAG [r5_2_TrMRF]	0.728 ± 0.051	1.74 ± 0.052	1.48 ± 0.13
SAGGSAGGPVRITSVRPIPGDPNVVVLELETVDGRPGTVLLVRLPGGERVAVLTLGDRPVVLPLSAGGSAGG [r6_555_TrMRF]	0.42 ± 0.013	1.93 ± 0.065	1.41 ± 0.045
